The values below come from US20190010233A1 (JIANGSU HYAMAB PHARMACEUTICAL, published 2019).

Changes are numbered by the printed parent chain. Where two headings read alike, the source gives them in different places. Where only a bound is given, the exact number is not on record here.

Assay [1] concerns the target T1, cyno PD-L1^ECD-hFc protein (cyno, UniProt G7PSE7 19-239).
T1 construct: also called Cyno Monkey PD-L1^ECD-hFc
Briefly: ELISA, 3.333 nM mAb. The procedure: (§1) 100 μL of the diluted recombinant proteins were added to each well of 96-well plate. The plates were sealed with plastic film and incubated at 4° C. overnight. The plates were washed twice with wash buffer (PBS+0.01% (v/v) Tween20), and incubated with blocking buffer (PBS+0.01% (v/v) Tween20+1% (w/w) BSA) at room temperature for 2 hours. The blocking buffer was aspirated away, and 100 μL of purified anti-PD-L1 antibodies were added to each well and incubated for 2 hours at 37° C. The plates were washed three times with wash buffer (PBS+0.01% (v/v) Tween20). HRP-conjugated secondary antibody (Sigma) was added to each well and incubated for 2 hours at 37° C. After the plates were washed three times with wash buffer, 100 μL TMB substrate were added to each well, and the plates were incubated for 30 minutes at room temperature. 100 μL stop solution (0.1N HCl) was added to each well to stop the reaction.
(In general: ELISA stands for enzyme-linked immunosorbent assay.)

The target of assay [2] is T2, human PD-L1^ECD-hFc protein (human, UniProt Q9NZQ7 19-239, biotinylated in the PD-1 binding ELISA (Table 3) and in the Octet assay (Table 12)).
T2 construct: The plain and the biotinylated protein are kept as one molecule; also called PD-L1-hFc; Immunogen A; not shown: human IgG Fc fragment (hFc)
The assay can be described thus: ELISA, 3.333 nM mAb. The procedure:
as §1

The target of assay [3] is T2, human PD-L1^ECD-hFc protein. Briefly: BLI Octet Red 96, biotinylated PD-L1-hFc on SA sensor. The procedure: Dissociation constants were determined by Octed red 96 (Fortiebio). The detailed operation and methods were followed according to the specifications of the instrument provided by the manufacturer. Briefly, a streptavidin sensor (SA sensor, Fortiebio) was used for the affinity determination. […] The reaction mixture was further incubated in PBS buffer (pH 7.4) containing 0.1% (v/w) BSA and 0.02% (v/v) Tween20 at 30° C. for 5 minutes.
A general note: BLI is a label-free optical method that tracks binding on a fibre tip over time.

Assay [4] deals with T3, full length human PD-L1 on cells (human, UniProt Q9NZQ7 19-290).
T3 construct: Also used as the target of the cell-based functional assays (transfected stimulator cells; PD-L1 of the cells in the mixed lymphocyte reaction); also called CHO-K1-hPD-L1; CHOK1-hPD-L1
The assay can be described thus: FACS CHO-K1-hPD-L1, 100.00 nM mAb.

Assay [5] deals with T4, full length cyno PD-L1 on cells (cyno, UniProt G7PSE7 19-290).
T4 construct: also called CHO-K1-cPD-L1
The assay can be described thus: FACS CHO-K1-cPD-L1, 11.11 nM mAb. The procedure:
(§2) Other CHO-K1 were stably transfected with a pIRES plasmid containing the nucleic acid sequence encoding full length cyno PD-L1 to generate CHO-K1 cells stably expressing cyno PD-L1 (herein referred to as CHO-K1-cPD-L1 cells). […] The culture media was aspirated, and the cells were washed twice with HBSS (Hanks Balanced Salt Solution, Invitrogen). The cells were treated with enzyme-free cell dissociation solution (Versene solution, Invitrogen) and collected. The cells were then washed twice with HBSS, cell counts were determined, and cells were resuspended with HBSS at 2×10⁶ cells/mL. Goat serum was added to the cell suspension to a final concentration of 1%, and the cells were blocked for 30 minutes on ice and then washed twice with HBSS. The cells were collected after centrifugation and resuspended in FACS buffer (HBSS+1% BSA, v/v) at 2×10⁶ cells/mL. 100 μL of the cell suspension were then added to each well of 96-well plate. 100 μL of purified anti-PD-L1 antibodies from Example 2 were added to each well of the 96-well plate and incubated for 2 hours on ice. […] The samples were washed three times with FACS buffer, and 100 μL fixation buffer (4% paraformaldehyde v/v) were added to each well and incubated for 10 minutes. The cells were then washed twice with FACS buffer and resuspended in 100 μL FACS buffer. The mean fluorescence intensity (MFI) was determined using FACS Calibur (BD), and the results are shown in FIGS. 7-8 and in Tables 10-11.

In assay [6] the target is T4, full length cyno PD-L1 on cells. Briefly: FACS CHO-K1-cPD-L1, 100.00 nM mAb. The procedure:
as §2

For assay [7], the target named is T1, cyno PD-L1^ECD-hFc protein. Briefly: ELISA, 10 nM mAb. The procedure: as §1
Assay [8] has as its target T2, human PD-L1^ECD-hFc protein. The assay can be described thus: ELISA, 10 nM mAb. The procedure: as §1
In assay [9] the target is T3, full length human PD-L1 on cells. The assay can be described thus: cell-based or functional assay.
For assay [10] the target is unchanged. Briefly: cell-based or functional assay. The source holds these as a separate data set.
Assay [11] concerns the target T2, human PD-L1^ECD-hFc protein. The assay can be described thus: ELISA, 0.01 nM mAb. The procedure:
as §1

For assay [12], the target named is T4, full length cyno PD-L1 on cells. Briefly: FACS CHO-K1-cPD-L1, 1 nM mAb. The procedure:
as §2

Assay [13] deals with T3, full length human PD-L1 on cells. Briefly: cell-based or functional assay. This is another data set of the same source.
In assay [14] the target is T2, human PD-L1^ECD-hFc protein. Briefly: ELISA, 100 nM mAb. The procedure:
as §1

Assay [15] has as its target T3, full length human PD-L1 on cells. The assay can be described thus: cell-based or functional assay. This is another data set of the same source.

T2 sequence (Q9NZQ7 19-239): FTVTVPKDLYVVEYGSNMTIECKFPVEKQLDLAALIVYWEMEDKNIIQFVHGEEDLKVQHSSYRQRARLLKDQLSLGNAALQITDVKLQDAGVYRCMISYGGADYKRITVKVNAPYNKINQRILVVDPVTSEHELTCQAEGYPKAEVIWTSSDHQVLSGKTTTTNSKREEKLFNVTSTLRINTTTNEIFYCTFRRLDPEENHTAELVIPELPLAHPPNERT
T3 sequence (Q9NZQ7 19-290 limits assumed): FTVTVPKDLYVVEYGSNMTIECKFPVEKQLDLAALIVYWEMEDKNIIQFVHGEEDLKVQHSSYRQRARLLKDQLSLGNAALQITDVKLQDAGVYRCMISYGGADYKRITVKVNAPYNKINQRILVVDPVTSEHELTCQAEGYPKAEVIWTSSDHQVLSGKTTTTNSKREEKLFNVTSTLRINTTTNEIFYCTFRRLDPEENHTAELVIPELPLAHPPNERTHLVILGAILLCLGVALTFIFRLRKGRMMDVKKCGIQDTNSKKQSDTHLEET
T4 sequence (G7PSE7 entry or part of it limits assumed): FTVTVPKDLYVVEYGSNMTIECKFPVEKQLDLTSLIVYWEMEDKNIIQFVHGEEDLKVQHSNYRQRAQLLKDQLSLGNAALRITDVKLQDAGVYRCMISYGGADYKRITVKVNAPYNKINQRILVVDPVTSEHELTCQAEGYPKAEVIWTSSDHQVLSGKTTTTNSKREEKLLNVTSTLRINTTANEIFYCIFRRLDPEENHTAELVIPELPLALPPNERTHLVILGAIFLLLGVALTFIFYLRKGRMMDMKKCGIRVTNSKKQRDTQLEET
T1 sequence (G7PSE7 entry or part of it limits assumed): as the sequence (Q9NZQ7 19-239) above, with A33T, A34S, S62N, R68Q, Q82R, F173L, T185A, T192I, H215L counted along it

B1: chimeric anti-PD-L1 antibody 78A11F6 (antibody, V domains shown)
VH: EVQLVESGGGLVQPGGSLRLSCAASGITFSSYWMSWVRQTPGKGLEWVANIKQDGSEKYYVKSVKGRFTISRDNAKNSLYLQMNSLRAEDTAVYYCVRDRAVPGTGAFDIWGQGTMVIVSS
VL: DIQMTQSPSTLSASVGDRVTITCRASQSISNWLAWYQQKPGKAPKLLIYKASSLESGVPSRFSGSGSGTEFTLTISSLQPDDFATYYCQQYDSSLFTFGQGTKLEIK
notes: Purified from hybridoma of Harbour H2L2 mice: human variable regions, rat constant regions
The term Kd denotes the equilibrium constant for the complex coming apart. Low readings indicate higher affinity, high ones lower affinity. For orientation: koff means a measure of how fast the partners let go of each other. Higher therefore signals fast dissociation. As usually defined, the kon is a measure of how fast the partners come together. High values mean fast association, low ones slow association. Take B1: the OD450 nm in assay [1] was found to be 2. Moreover, the OD450 nm in [2] stood at 1.73. In addition, in [3], the Kd turned out to be 0.148 nM, the koff was found to be 3.64e-05 s⁻¹ and the kon turned out to be 245000 M⁻¹ s⁻¹. In assay [4], this molecule gave a Mean fluorescence intensity of 232. For the same molecule, in assay [5], the Mean fluorescence intensity was 142. Further, in assay [6], the Mean fluorescence intensity amounted to 144. For the same molecule, the OD450 nm in assay [7] is 2.07. In addition, in assay [8], the OD450 nm was found to be 1.72. Moreover, in [9], the “IFN-γ (pg/mL), PBMC stimulation, 0.001 µg/mL mAb” value was 3740 pg/mL; the “IFN-γ (pg/mL), PBMC stimulation, 0.01 µg/mL mAb” value was 11100 pg/mL; the “IFN-γ (pg/mL), PBMC stimulation, 0.1 µg/mL mAb” value stood at 6100 pg/mL; the “IFN-γ (pg/mL), PBMC stimulation, 1 µg/mL mAb” value is 13000 pg/mL.

B2: chimeric anti-PD-L1 antibody 73G11B3 (antibody, V domains shown)
VH: B1 VH with A23V, A24V, I27F, K62D, F68L, F108L, I118T
VL: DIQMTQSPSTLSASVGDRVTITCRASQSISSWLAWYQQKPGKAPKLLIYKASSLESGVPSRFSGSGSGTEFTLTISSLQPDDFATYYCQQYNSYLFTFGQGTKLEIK
notes: as for B1
Consider B2, for which, in assay [10], the “IFN-γ (pg/mL), MLR, 0.001 µg/mL mAb” value came to 1520 pg/mL; the “IFN-γ (pg/mL), MLR, 0.01 µg/mL mAb” value came to 3750 pg/mL; the “IFN-γ (pg/mL), MLR, 0.1 µg/mL mAb” value amounted to 5740 pg/mL; the “IFN-γ (pg/mL), MLR, 1 µg/mL mAb” value is 6480 pg/mL. In [10], the “IFN-γ (pg/mL), MLR, 10 µg/mL mAb” value was determined as 6950 pg/mL. The OD450 nm in assay [11] came to 0.28. For the same molecule, in assay [3], binding was characterised by a dissociation constant (Kd) of 0.116 nM, the koff was 3.95e-05 s⁻¹ and the kon amounted to 341000 M⁻¹ s⁻¹. This molecule yielded a Mean fluorescence intensity in [4] of 215. In assay [12], the Mean fluorescence intensity came out at 94.9. In assay [13], the “IFN-γ (pg/mL), MLR, 0.001 µg/mL mAb” value was 3340 pg/mL; the “IFN-γ (pg/mL), MLR, 0.01 µg/mL mAb” value stood at 3390 pg/mL; the “IFN-γ (pg/mL), MLR, 0.1 µg/mL mAb” value stood at 7480 pg/mL; the “IFN-γ (pg/mL), MLR, 1 µg/mL mAb” value was found to be 16400 pg/mL. The same molecule gave a Mean fluorescence intensity in assay [6] of 107. The OD450 nm in [14] was found to be 2.69. Further, the OD450 nm in [8] came out at 2.73. Moreover, in assay [15], the “IL-2 (pg/mL), MLR donor1, 0.001 µg/mL mAb” value came to 216 pg/mL; the “IL-2 (pg/mL), MLR donor1, 0.01 µg/mL mAb” value was determined as 365 pg/mL; the “IL-2 (pg/mL), MLR donor1, 0.1 µg/mL mAb” value came out at 453 pg/mL; the “IL-2 (pg/mL), MLR donor1, 1 µg/mL mAb” value amounted to 426 pg/mL. The “IL-2 (pg/mL), MLR donor1, 10 µg/mL mAb” value in assay [15] turned out to be 477 pg/mL. For the same molecule, in assay [9], the “IFN-γ (pg/mL), PBMC stimulation, 0.001 µg/mL mAb” value turned out to be 2400 pg/mL; the “IFN-γ (pg/mL), PBMC stimulation, 0.01 µg/mL mAb” value was 5700 pg/mL; the “IFN-γ (pg/mL), PBMC stimulation, 0.1 µg/mL mAb” value was 6290 pg/mL; the “IFN-γ (pg/mL), PBMC stimulation, 1 µg/mL mAb” value stood at 7860 pg/mL. Also, in assay [9], the “IFN-γ (pg/mL), PBMC stimulation, 10 µg/mL mAb” value is 10700 pg/mL.

B3: chimeric anti-PD-L1 antibody 73D3G2 (antibody, V domains shown)
VH: EVQLVESGGGLVQPGGSLRLSCAASGFTFNTYWMNWVRQAPGRGLEWVANIKQDGGEKYYVDSVKGRFTISRDNAKNSLYLQMNSLRAEDTAMYYCARDGRSWYPDAFDIWGQGTVVTVSS
VL: DIQMTQSPSTLSASVGDRVTITCRASQSISTWLAWYQQKLGKAPKLLIYEVSILESGVPSRFSGSGSGTEFTLTISSLQPDDFATYYCQQYHSFSSFGGGTRVEIK
notes: as for B1
In [1], B3 displayed an OD450 nm of 2.03. Moreover, in [2], the OD450 nm was determined as 2.03. Further, in assay [3], the equilibrium dissociation constant (Kd) is under 0.001 nM, the koff was under 1e-07 s⁻¹ and the kon turned out to be 398000 M⁻¹ s⁻¹. For the same molecule, in assay [4], the Mean fluorescence intensity amounted to 124. In [5], this molecule displayed a Mean fluorescence intensity of 136. For the same molecule, the Mean fluorescence intensity in assay [6] turned out to be 137. The OD450 nm in assay [7] came to 2.09. The OD450 nm in assay [8] is 2.09. Moreover, in assay [9], the “IFN-γ (pg/mL), PBMC stimulation, 0.001 µg/mL mAb” value was 3830 pg/mL; the “IFN-γ (pg/mL), PBMC stimulation, 0.01 µg/mL mAb” value stood at 3280 pg/mL; the “IFN-γ (pg/mL), PBMC stimulation, 0.1 µg/mL mAb” value came out at 9560 pg/mL; the “IFN-γ (pg/mL), PBMC stimulation, 1 µg/mL mAb” value is 8760 pg/mL.

B4: chimeric anti-PD-L1 antibody 105C5D7 (antibody, V domains shown)
VH: EVQLVESGGGLVQPGGSLRLSCAASGFTFSSYWMSWVRQAPGKGLEWVANIKQDGNEKYYVDSVKGRFTISRDNAKNSLYLQMNSLRAEDTAVYYCARNIKWGDAFDIWGQGTMVTVSS
VL: DIQMTQSPSSLSASVGDRVTITCRASQSISSYLNWYQQKPGKAPKLLIYAASSLQSGVPSRFSGSGSGTDFTLTISSLQPEDFAIYSCQQSYSIPLTFGGGTKVEIK
notes: as for B1
Take B4: in assay [1], the OD450 nm was found to be 1.5. The same molecule came in with an OD450 nm in [2] of 1.5. Moreover, in [3], binding was put at a Kd of 0.245 nM, the koff worked out at 0.000368 s⁻¹ and the kon is 1.5e+06 M⁻¹ s⁻¹. The Mean fluorescence intensity in assay [4] came out at 182. Besides, the Mean fluorescence intensity in assay [5] was 136. The molecule further registered a Mean fluorescence intensity in assay [6] of 120. In assay [7], this molecule registered an OD450 nm of 1.56. In [8], this molecule had an OD450 nm of 1.56. Moreover, in assay [9], the “IFN-γ (pg/mL), PBMC stimulation, 0.001 µg/mL mAb” value worked out at 1640 pg/mL; the “IFN-γ (pg/mL), PBMC stimulation, 0.01 µg/mL mAb” value stood at 3380 pg/mL; the “IFN-γ (pg/mL), PBMC stimulation, 0.1 µg/mL mAb” value is 5850 pg/mL; the “IFN-γ (pg/mL), PBMC stimulation, 1 µg/mL mAb” value came out at 7570 pg/mL.
